Results published in patent publication US8569455B2, “Cloning, yeast expression, purification and biological activity of the extension region of the soybean 7S globulin alfa' subunit involved in HEP G2 cell cholesterol homeostasis” (Indena S.p.A., priority 2009, dated 2013).
Marks after values point to notes of the source that are not given here.

Legend:
HepG2 cells [1] = test: Uptake and degradation of 125I-LDL by HepG2 cells; assay type: cell-based, human; settings: for Degradation % / Uptake %: % of LPDS control (100); for Degradation ng125I-LDL/mg cell protein / Uptake ng125I-LDL/mg cell protein: HepG2, 24 h preincubation in 5% LPDS, then 125I-LDL 7.5 mg/L for 5 h, mean ± SD
Description: The established human hepatoma cell line (HepG2) was obtained from American Type Culture Collection (Rockville, Md.). Eagle's minimum essential medium (MEM), fetal calf serum, trypsin-EDTA (1×), penicillin (10^5 U/L), streptomycin (100 g/L), tricine buffer (1 mmol/L, pH 7.4) and non-essential amino acid solutions (100×) were from GIBCO (Madison, Wis.). Petri dishes were from COSTAR (Cambridge, Mass.). Filters were from Millipore (Bedford, Mass.). […] Sephadex G25 columns (PD10) were from Pharmacia Biotech (Uppsala, Sweden). LDH and MTT kit were from Sigma Diagnostics (Milano-Italy). All other chemicals were of analytical grade from Merck (Darmstadt, Germany). […] For experiments designed to evaluate the LDL receptor modulation, cells were seeded in 35 mm plastic dishes (3-5×10^5 cells) and used just before reaching confluence. In all cell culture experiments, the medium was changed every 2-3 days. In order to assess cell viability, culture media from cells exposed to eα′ at different concentrations were tested by methyltetrazolium salts (MTT) assay, essentially as described in ref. 9. Cell enzyme leakage was determined by measuring lactate dehydrogenase (LDH) activity, using a kinetic (LDH/LD) diagnostic kit (Sigma Diagnostics). […] Human lipoprotein deficient serum (LPDS) was prepared as previously described.
Monolayers of cells were preincubated at 37° C. for 24 h in MEM supplemented with 5 g/100 g LPDS to up-regulate the LDL-receptors, in the presence/absence of eα′ at different concentrations listed in Table or 3.5 μmol/L α′ purified subunit or 1.0 μmol/L simvastatin.
Differences in cell uptake and degradation of LDL after cell incubation with eα′ at different concentrations were determined by ANOVA followed by Dunnett's test. Values are expressed as means±SD; P values<0.05 were considered as statistically significant.

LDL-R = settings: Hep G2 cells exposed to the peptide at 100 μM; cited from earlier work
HepG2 cells [2] = test: Cell enzyme leakage, lactate dehydrogenase (LDH) activity; assay type: cell-based, human; settings: all concentrations tested; data not shown
Description: (§1) The established human hepatoma cell line (HepG2) was obtained from American Type Culture Collection (Rockville, Md.). Eagle's minimum essential medium (MEM), fetal calf serum, trypsin-EDTA (1×), penicillin (10^5 U/L), streptomycin (100 g/L), tricine buffer (1 mmol/L, pH 7.4) and non-essential amino acid solutions (100×) were from GIBCO (Madison, Wis.). Petri dishes were from COSTAR (Cambridge, Mass.). Filters were from Millipore (Bedford, Mass.). The Protein Coomassie Plus Protein Assay kit was purchased from Pierce (Rockford, Ill., USA). ^125Iodine, carrier free, in 100 mmol/L NaOH, was from Perkin Elmer Life Sciences (Boston, Mass.). Sephadex G25 columns (PD10) were from Pharmacia Biotech (Uppsala, Sweden). LDH and MTT kit were from Sigma Diagnostics (Milano-Italy). All other chemicals were of analytical grade from Merck (Darmstadt, Germany). Cells were grown in monolayers in 90 mm-diameter Petri dishes, and maintained at 37° C. in a humidified atmosphere of 95% air, 5% CO2 in MEM supplemented with 10% fetal calf serum (FCS), non essential amino acid solution (1%, v/v), penicillin (10^5 U/L), streptomycin (0.1 g/L), tricine buffer (20 mmol/L, pH 7.4), NaHCO3 (24 mmol/L) and sodium pyruvate (0.11 g/L). […] Cell enzyme leakage was determined by measuring lactate dehydrogenase (LDH) activity, using a kinetic (LDH/LD) diagnostic kit (Sigma Diagnostics). […]

HepG2 cells [3] = test: Cell viability by methyltetrazolium salts (MTT) assay; assay type: cell-based, human; settings: all concentrations tested; data not shown
Description: as §1

In the case of `CCC(C)(C)C(=O)O[C@H]1C[C@@H](C)C=C2C=C[C@H](C)[C@H](CC[C@@H]3C[C@@H](O)CC(=O)O3)[C@H]21` [Simvastatin, simvastatin, reference compound], the Degradation % (HepG2 cells [1]; 1.0 μmol/L) is reported as 179%, the Uptake % (HepG2 cells [1]; 1.0 μmol/L) is reported as 200% and the “Degradation ng125I-LDL/mg cell protein” value (HepG2 cells [1]; 1.0 μmol/L) is reported as 143 ± 7.9** ng^125 I-LDL/mg cell protein. The “Uptake ng125I-LDL/mg cell protein” value (HepG2 cells [1]; 1.0 μmol/L) was 188 ± 10** ng^125 I-LDL/mg cell protein.

For “FVVNATSN (Glycine max) [LDL-R transcription stimulating peptide deriving from the 7S globulin β chain]”, the “Increased LDL-R transcription” value (LDL-R) is given as “+148%”.

B1: 7S α′ subunit: purified full size α′ subunit of the soybean 7S globulin, around 71 kDa, positive control (protein)
chain: VEEEEECEEGQIPRPRPQHPERERQQHGEKEEDEGEQPRPFPFPRPRQPHQEEEHEQKEEHEWHRKEEKHGGKGSEEEQDEREHPRPHQPHQKEEEKHEWQHKQEKHQGKESEEEEEDQDEDEEQDKESQESEGSESQREPRRHKNKNPFHFNSKRFQTLFKNQYGHVRVLQRFNKRSQQLQNLRDYRILEFNSKPNTLLLPHHADADYLIVILNGTAILTLVNNDDRDSYNLQSGDALRVPAGTTFYVVNPDNDENLRMIAGTTFYVVNPDNDENLRMITLAIPVNKPGRFESFFLSSTQAQQSYLQGFSKNILEASYDTKFEEINKVLFGREEGQQQGEERLQESVIVEISKKQIRELSKHAKSSSRKTISSEDKPFNLGSRDPIYSNKLGKLFEITQRNPQLRDLDVFLSVVDMNEGALFLPHFNSKAIVVLVINEGEANIELVGIKEQQQRQQQEEQPLEVRKYRAELSEQDIFVIPAGYPVMVNATSDLNFFAFGINAENNQRNFLAGSKDNVISQIPSQVQELAFPRSAKDIENLIKSQSESYFVDAQPQQKEEGNKGRKGPLSSILRAFY
modifications: Glycine max
notes: purified full size α′ subunit of the soybean 7S globulin, around 71 kDa, positive control
For B1, the Degradation % (HepG2 cells [1]; 3.5 μmol/L) was 160%, the Uptake % (HepG2 cells [1]; 3.5 μmol/L) was 164% and the “Degradation ng125I-LDL/mg cell protein” value (HepG2 cells [1]; 3.5 μmol/L) was 128 ± 4.8* ng^125 I-LDL/mg cell protein. For the same molecule, the “Uptake ng125I-LDL/mg cell protein” value (HepG2 cells [1]; 3.5 μmol/L) was 154 ± 9.1* ng^125 I-LDL/mg cell protein.

B2: eα′: recombinant N-terminal extension region of the soybean 7S globulin α′ subunit, expressed in Pichia pastoris, about 20 kDa, SEQ ID NO: 1 (protein)
chain: AVEEEEECEEGQIPRPRPQHPERERQQHGEKEEDEGEQPRPFPFPRPRQPHQEEEHEQKEEHEWHRKEEKHGGKGSEEEQDEREHPRPHQPHQKEEEKHEWQHKQEKHQGKESEEEEEDQDEDEEQDKESQESEGSESQREP
modifications: Glycine max
With B2 the “Cellular toxicity, LDH assay” value (HepG2 cells [2]) was “At no concentration of eα′ was there any evidence of cellular toxicity”, the Degradation % (HepG2 cells [1]; 0.5 μmol/L) was 125% and the Uptake % (HepG2 cells [1]; 0.5 μmol/L) was 120%. The “Degradation ng125I-LDL/mg cell protein” value (HepG2 cells [1]; 0.5 μmol/L) was 100 ± 10* ng^125 I-LDL/mg cell protein, the “Uptake ng125I-LDL/mg cell protein” value (HepG2 cells [1]; 0.5 μmol/L) was 113 ± 7.1* ng^125 I-LDL/mg cell protein and the Degradation % (HepG2 cells [1]; 1.0 μmol/L) was 148%. For the same molecule, the Uptake % (HepG2 cells [1]; 1.0 μmol/L) was 146%, the “Degradation ng125I-LDL/mg cell protein” value (HepG2 cells [1]; 1.0 μmol/L) was 118 ± 9.3* ng^125 I-LDL/mg cell protein and the “Uptake ng125I-LDL/mg cell protein” value (HepG2 cells [1]; 1.0 μmol/L) was 138 ± 9.2* ng^125 I-LDL/mg cell protein. For the same molecule, the Degradation % (HepG2 cells [1]; 2.0 μmol/L) was 196%, the Uptake % (HepG2 cells [1]; 2.0 μmol/L) was 179% and the “Degradation ng125I-LDL/mg cell protein” value (HepG2 cells [1]; 2.0 μmol/L) was 157 ± 8.7** ng^125 I-LDL/mg cell protein. For the same molecule, the “Uptake ng125I-LDL/mg cell protein” value (HepG2 cells [1]; 2.0 μmol/L) was 169 ± 6.7** ng^125 I-LDL/mg cell protein and the “Cellular toxicity, MTT assay” value (HepG2 cells [3]) was “At no concentration of eα′ was there any evidence of cellular toxicity”.
